*1 amine or outer side, *2 acyl side, *3 side chain or, on linkers, in order; H or OH if unused. Where a SMILES comes first, the peptide text is derived from it. Bridges are numbered along the chain shown (N, C = ends). Where no end group is shown, it is not given here. [ ]: non-standard residue; d: D form. The star is where a group is joined. DOTA = O=C(O)CN1CCN(CC(=O)O)CCN(CC(=O)*)CCN(CC(=O)O)CC1; 1Nal = N[C@@H](Cc1cccc2ccccc12)C(=O)O; TBMB = c1c(C[*:1])cc(C[*:3])cc1C[*:2]; hArg = N=C(N)NCCCC[C@H](N)C(=O)O; Tle = CC(C)(C)[C@H](N)C(=O)O; Aib = CC(C)(N)C(=O)O; βAla = NCCC(=O)O; Sar = CNCC(=O)O
Columns and labels:
integrin αvβ3 = integrin αvβ3 (Homo sapiens, UniProt P05106+P06756); details: bicyclic peptide formed with TBMB; as described in UK provisional application P2122; read-out: Ki of αvβ3 binder; cited from earlier work
MT1-MMP hemopexin domain = MT1-MMP hemopexin domain (Homo sapiens, UniProt P50281); details: bicyclic peptide formed with TBMB; as described in WO 2016/067035; read-out: Kd of MT1-MMP binder; cited from earlier work
xenograft tumor = experiment: μPET imaging with 68Ga-labelled Bicycle peptides in xenograft mice; assay type: in vivo; details: 150 pmoles
Method: General method for μPET imaging: the mice were anaesthetized (2% sevoflurane, Abbott), placed into the small animal PET scanner (Inveon PET, Siemens) and injected with 68Ga-labeled Bicycle peptides. A 20 min transmission scan, a 50 min dynamic scan and a static scan from 100 to 120 min p.i. were performed. Images were reconstructed iteratively using the space alternating generalized expectation maximization method (SAGE, 16 subsets, 4 iterations) applying median root prior correction and were converted to standardized uptake value (SUV) images. Quantitation was done using a ROI (region of interest) technique and expressed as SUVmean.
General method for radiolabeling with Ga-68: ^68Ga (half-life 68 min; β^+ 89%; Eβ+max. 1.9 MeV) was obtained from a in house ^68Ge/^68Ga generator based on pyrogallol resin support. 1 GBq ^68Ga was eluted using 5.5 M HCl. The activity was trapped on a small anion-exchanger cartridge (AG1X8, Biorad, Richmond, CA, USA) as [^68Ga]GaCl4^−. The radiogallium was eluted from the cartridge in a final volume of 300 μL ultrapure water (Merck, Darmstadt, Germany) as [^68Ga]GaCl3.
1 nmol Bicycle peptide in 1 μL DMSO was added to a mixture of 50 μL 0.05 M HEPES, 0.1% Tween-20, and 80 μL [^68Ga]Ga^3+ eluate (˜200 MBq). The pH of the labelling solution was adjusted to 4.2 using 30% NaOH. The reaction mixture was incubated at 98° C. for 10 minutes. The radiochemical yield (RCY) was determined using reversed-phase high performance liquid chromatography (RP-HPLC; Chromolith RP-18e, 100×4.6 mm; Merck, Darmstadt, Germany). The analytical HPLC run was performed using a linear A-B gradient (0% B to 100% B in 6 min) at a flow rate of 4 mL/min. Solvent A consisted of 0.1% aqueous TFA and solvent B was 0.1% TFA in CH3CN.
For μPET imaging, the labelling reaction mixture was diluted in injection buffer (0.25 M Na-Acetate 0.05% Tween-20 pH 7) by a factor of 6 to obtain 150 pmoles in 100 μL injection buffer. The anaesthetized mouse (2% sevoflurane, Abbott) was injected with 100 μL of ^68Ga-labelled I-23 (˜25 MBq) and placed in a small animal PET scanner (Inveon PET, Siemens). The imaging was performed 60 min post-injection and included a 15 min transmission scan before injection and a 60 min emission scan post-injection. Scans from μPET imaging were reconstructed iteratively using the space alternating generalized expectation maximization method (SAGE, 16 subsets, 4 iterations) applying median root prior correction and were converted to standardized uptake value (SUV) images. Quantitation was accomplished using an ROI (region of interest) technique and expressed as SUVmean.
The radiolabelling with Ga-68 was done as described before. […] Quantitation was accomplished using an ROI (region of interest) technique and expressed as SUVmean. […]

human CAIX = human CAIX (Homo sapiens, UniProt Q16790); details: bicyclic peptide formed with TBMB; as described in UK provisional application P2120; read-out: Kd of CAIX binder; cited from earlier work

Chain of integrin αvβ3 (P06756 31-889 limits assumed): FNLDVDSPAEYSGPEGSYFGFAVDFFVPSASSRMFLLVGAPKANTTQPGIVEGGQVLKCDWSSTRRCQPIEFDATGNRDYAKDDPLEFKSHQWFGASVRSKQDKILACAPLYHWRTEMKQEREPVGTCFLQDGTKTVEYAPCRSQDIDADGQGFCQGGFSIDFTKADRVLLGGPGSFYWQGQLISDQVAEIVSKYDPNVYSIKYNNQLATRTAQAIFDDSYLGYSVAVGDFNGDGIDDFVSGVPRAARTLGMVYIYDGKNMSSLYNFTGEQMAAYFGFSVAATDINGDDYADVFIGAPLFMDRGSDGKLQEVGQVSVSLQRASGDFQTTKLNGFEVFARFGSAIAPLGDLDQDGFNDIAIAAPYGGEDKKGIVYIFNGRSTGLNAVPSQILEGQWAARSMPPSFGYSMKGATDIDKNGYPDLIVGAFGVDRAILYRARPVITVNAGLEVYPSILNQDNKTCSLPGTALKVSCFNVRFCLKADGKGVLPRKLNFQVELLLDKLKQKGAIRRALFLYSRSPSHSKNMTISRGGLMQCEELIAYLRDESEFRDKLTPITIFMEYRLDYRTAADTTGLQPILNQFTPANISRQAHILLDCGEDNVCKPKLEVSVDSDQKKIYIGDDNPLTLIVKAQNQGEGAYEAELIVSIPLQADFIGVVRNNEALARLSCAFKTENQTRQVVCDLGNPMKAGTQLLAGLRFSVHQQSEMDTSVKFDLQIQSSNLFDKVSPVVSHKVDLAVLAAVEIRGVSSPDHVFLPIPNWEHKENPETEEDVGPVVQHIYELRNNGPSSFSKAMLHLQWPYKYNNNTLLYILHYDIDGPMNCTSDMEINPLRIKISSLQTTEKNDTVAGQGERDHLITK
Chain of integrin αvβ3 (P06756 891-1048 partner limits assumed): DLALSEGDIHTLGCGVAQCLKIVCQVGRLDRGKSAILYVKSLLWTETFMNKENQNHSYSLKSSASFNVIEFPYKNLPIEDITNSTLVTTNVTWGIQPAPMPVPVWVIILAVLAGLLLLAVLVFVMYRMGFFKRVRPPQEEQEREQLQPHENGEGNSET
Chain of integrin αvβ3 (P05106 27-788): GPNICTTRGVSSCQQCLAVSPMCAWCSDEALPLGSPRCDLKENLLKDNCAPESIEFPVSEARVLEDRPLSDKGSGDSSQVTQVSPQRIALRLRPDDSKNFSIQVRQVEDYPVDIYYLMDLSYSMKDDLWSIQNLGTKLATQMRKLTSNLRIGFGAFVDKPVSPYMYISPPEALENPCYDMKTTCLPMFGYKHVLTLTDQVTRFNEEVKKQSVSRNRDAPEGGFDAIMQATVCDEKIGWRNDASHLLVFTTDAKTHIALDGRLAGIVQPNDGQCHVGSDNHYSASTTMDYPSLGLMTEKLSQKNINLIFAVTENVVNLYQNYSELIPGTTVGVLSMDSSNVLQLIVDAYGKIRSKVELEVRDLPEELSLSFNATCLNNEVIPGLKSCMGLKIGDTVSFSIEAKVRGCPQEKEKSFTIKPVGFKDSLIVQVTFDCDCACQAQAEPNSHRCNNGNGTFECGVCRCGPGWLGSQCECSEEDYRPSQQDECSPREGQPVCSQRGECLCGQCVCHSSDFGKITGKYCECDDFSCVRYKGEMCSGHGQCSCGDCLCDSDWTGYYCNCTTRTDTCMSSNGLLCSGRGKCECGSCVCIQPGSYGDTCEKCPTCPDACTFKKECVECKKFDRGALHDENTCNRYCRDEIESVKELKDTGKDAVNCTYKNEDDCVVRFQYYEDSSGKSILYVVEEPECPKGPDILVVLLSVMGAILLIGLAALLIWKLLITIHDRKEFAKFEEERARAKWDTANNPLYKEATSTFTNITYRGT

Ac-CIL(HArg)PNCDLDGRCA-Sar6-(D-K) [compound 5, "peptide 5"]
Ki (integrin αvβ3): 15 nM

βAla-Sar10-A-C(D-Ala)NE(1Nal)(D-Ala)CEDFYD(tBuGLy)C ([βAla][Sar][Sar][Sar][Sar][Sar][Sar][Sar][Sar][Sar][Sar]AC[dA]NE[1Nal][dA]CEDFYD[Tle]C; linker 13-19-26 via TBMB) [17-69-07-N241, "peptide 1 (17-69-07-N241)"]
Kd (MT1-MMP hemopexin domain): 1.2 nM

CC(C)[C@H](NC(=O)[C@@H](CC(=O)O)NC(=O)[C@H](Cc1c[nH]cn1)NC(=O)CN(C)C(=O)CN(C)C(=O)CN(C)C(=O)CN(C)C(=O)CN(C)C(=O)CN(C)C(=O)CN(C)C(=O)CN(C)C(=O)CN(C)C(=O)CN(C)C(=O)CCNC(=O)CN1CCN(CC(=O)O)CCN(CC(=O)O)CCN(CC(=O)O)CC1)C(=O)N1CCC[C@H]1C(=O)N[C@H]1CSCc2cc3cc(c2)CSC[C@H](NC(=O)[C@H](Cc2cccc4ccccc24)NC(=O)[C@H](Cc2ccccc2)NC(=O)C(C)(C)NC(=O)CNC(=O)[C@H](Cc2cccc4ccccc24)NC(=O)C(C)(C)NC1=O)C(=O)N1CCC[C@H]1C(=O)N[C@@H](C(C)(C)C)C(=O)N[C@@H](CC(N)=O)C(=O)N[C@@H](CCCCNC(=N)N)C(=O)N1CCC[C@H]1C(=O)N[C@H](CC(=O)O)C(=O)N[C@H](C(N)=O)CSC3 [I-15] ({DOTA-βAla}-[Sar][Sar][Sar][Sar][Sar][Sar][Sar][Sar][Sar][Sar]H[dD]VPC[Aib][1Nal]G[Aib]F[1Nal]CP[Tle]N[hArg]P[dD]C-NH2; linker 15-22-29 via TBMB)
liver uptake in PET imaging (xenograft tumor): clearly reduced liver uptake | tumor signal in PET imaging (xenograft tumor): extremely high

βA1a-Sar10-A-CTECWVDGWVPC [compound 3, "peptide 3"]
Kd (human CAIX): 10 nM
